# Test results from paper PMC12560246, “Calorimetric characterization of the stability and activity of trimethylamine‐N‐oxide (TMAO) demethylase from Methylocella silvestris BL2” (Protein Science : A Publication of the Protein Society, 2025).
# Where “and” joins values, the source holds several entries; their conditions need not be identical. Equal entries are not always repeated.
# B1: Tdm (trimethylamine-N-oxide demethylase) (Methylocella silvestris BL2) (protein)
# chain: MNVNAAAPKGSFDLDAPRRVQTLSAAGGGGVQFDLSAGDEAIITNLEGGQAGELLTASGEPLRLTPGSAPTDEAGVRAVAGDLAAAFLAARQGTERFLATPLFHAAAEPGETFRFKAEADMRCLLLAPGEPMAPDAQNPPTELRLDIFSSRPTGGAAPPSLAPVKLDLRVDAATARAYRVSAGDYIQIIDVDGRQCSDLVAFDARALAEGRELGVDPTVTRTLMGSATPGPGLHAKYFDQDMNPLFEIVRDTVGRHDTFMLACNAKYYDDMGYPGHANCTDNFNAALAPFGVAPRRGWPAINFFYNTFVAEDNTIGLDEPWSRPGDYVLLRALTDLVCASSSCADDIDPANGWMPTDIHVRVYDAAASFSKGIAHRMTADAAPRLTRESGFHSRTSALTRSFADYRGFWTPQCYASEGPIAEYWACRERAVLIDLSALRKFEITGPDAEILLQSAVTRNIRKLAVGQIVYTAICHEHGGMLDDGTVFRLGDNNFRLVCGEDYCGVFLRELAARQGLRAFVRSSTDQLHNVALQGPKSRDILREILVTPPHRASADELKWFRFTVGKIAGLPVLVSRTGYTGELGYEIWLHPGSAVAVWDALMAAGKPYGIAPFGFAALDMVRIEAGLIFAHHEFCDETDPFEAGIGFAVPAEKADPYVGSEALARRRASPIRRLAGLDVAGNEAVAHGDPVFAGRAQVGVVTSAMRSPVLGRTIALARLDAACASIGTDLEIGKLDGRQKRIAATVARFPHYDPEKARVRA
# notes: GenBank version '.14' [sic]
# Experiments:
# [1] = molecular target: trimethylamine-N-oxide demethylase (Tdm) from Methylocella silvestris BL2 (Methylocella silvestris BL2); test: SEC; analytical SEC, HiLoad 16/600 Superdex 200 pg, 50 mM TRIS pH 7.9, 150 mM NaCl, 0.5 mL/min; column calibrated with globular proteins; 0.5 mL of concentrated IMAC fractions injected
# [2] = substrate: C[N+](C)(C)[O-]; test: isothermal titration calorimetry, multiple injection, Michaelis-Menten fit; assay type: biochemical, Methylocella silvestris; details: 50 mM KPi pH 7.0, 25 °C, 100 nM Tdm, multiple injections of 600 μM TMAO
# From the text: isothermal titration calorimetry, multiple injection, Michaelis-Menten fit on Tdm (trimethylamine-N-oxide demethylase)
Molecule,stoichiometry N [1],Km [2] [mM],Vmax [2] [µmol/min],kcat [2] [s⁻¹]
trimethylamine-N-oxide demethylase (Tdm) from Methylocella silvestris BL2 (enzyme),8 and 5,,,
B1,,0.866 ± 0.072,18.5,15.48 ± 0.04
